Data on 7 molecules can be found in patent publication US20220332789A1 (COMBIKINE BIOTECHNOLOGY, published 2022).

The target of assay [1] is IgE (NIP IgE, AbD Serotec) (Homo sapiens (Human)), P01854. Put plainly: cell-based or functional assay.
In assay [2] the target is T1, IgE-Fc (UniProt P01854-1 104-428, limits assumed).
T1 construct: domain: IgE-Fc; In SPR it was captured on the chip by the α-Cε4 Fab; also called α-Cε4 Fab captured IgE-Fc; IgE-Fc-A488
The assay can be described thus: flow cytometry competition: 1 nM IgE-Fc-A488 binding to FcεRI on RBL SX-38 cells.

Assay [3] addresses T1, IgE-Fc. Put plainly: SPR (Biacore), steady state analysis, one-to-one binding model, derCD23 0-4 µM over α-Cε4 Fab captured IgE-Fc. The method, then: (§1) An α-Cε4 Fab CM5 sensor surface was prepared using amine-coupling and a mock amine-coupled surface was used as a reference-subtraction control. […] Injections were performed at a flow rate of 25 μl·min⁻¹ in a running buffer of 10 mM HEPES, pH 7.4, 150 mM NaCl, 4 mM CaCl₂, and 0.005% (v/v) surfactant P-20 (GE Healthcare).
(In SPR one partner is held on a chip, and binding of the other changes the refractive index at the surface.)

In assay [4] the target is T1, IgE-Fc. The assay can be described thus: SPR (Biacore T200), monophasic kinetic fitting, derCD23 4000 nM to 31 nM over α-Cε4 Fab captured IgE-Fc, pH 7.4, 4 mM CaCl2. The method, then:
as §1

T1 sequence (P01854 other isoform, or with tags, fused parts or gaps limits assumed): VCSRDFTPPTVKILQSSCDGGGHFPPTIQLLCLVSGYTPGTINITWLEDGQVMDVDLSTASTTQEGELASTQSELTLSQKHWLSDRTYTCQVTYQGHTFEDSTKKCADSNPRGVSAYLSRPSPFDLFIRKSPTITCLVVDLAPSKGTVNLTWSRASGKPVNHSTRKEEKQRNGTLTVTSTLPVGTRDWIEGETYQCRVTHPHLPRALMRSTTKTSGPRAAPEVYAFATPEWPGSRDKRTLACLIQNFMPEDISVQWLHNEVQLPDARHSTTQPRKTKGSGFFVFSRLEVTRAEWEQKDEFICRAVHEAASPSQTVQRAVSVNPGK
Sequence of IgE (NIP IgE, AbD Serotec) (Homo sapiens (Human)), P01854 (P01854 other isoform, or with tags, fused parts or gaps limits assumed): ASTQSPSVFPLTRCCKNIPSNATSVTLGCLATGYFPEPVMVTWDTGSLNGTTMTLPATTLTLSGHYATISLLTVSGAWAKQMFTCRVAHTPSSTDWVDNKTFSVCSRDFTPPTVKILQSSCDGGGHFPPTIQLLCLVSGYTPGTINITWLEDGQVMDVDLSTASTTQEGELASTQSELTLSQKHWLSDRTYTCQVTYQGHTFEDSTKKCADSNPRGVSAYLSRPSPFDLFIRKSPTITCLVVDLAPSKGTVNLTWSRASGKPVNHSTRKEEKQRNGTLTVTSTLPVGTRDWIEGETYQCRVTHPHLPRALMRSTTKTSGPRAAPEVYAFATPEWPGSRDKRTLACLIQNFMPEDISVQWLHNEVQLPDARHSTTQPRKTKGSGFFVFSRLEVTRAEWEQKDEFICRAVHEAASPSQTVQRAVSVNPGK

B1: anti-IgE^4 (Fc fusion)
chain: EASDLLERLREEVTKLRMELQVSSGFVCNTCPEKWINFQRKCYYFGKGTKQWVHARYACDDMEGQLVSIHSPEEQDFLTKHASHTGSWIGLRNLDLKGEFIWVDGSHVDYSNWAPGEPTSRSQGEDCVMMRGSGRWNDAFCDRKLGAWVCDRLATCTPPASEGSAESMGPDSRPDPDGRLPTPSAPLHSGGGGSGGGGSGGGGSGGGGSASISAMVRSPRGPTIKPCPPCKCPAPNLEGGPSVFIFPPKIKDVLMISLSPIVTCVVVDVSEDDPDVQISWFVNNVEVHTAQTQTHREDYNSTLRVVSALPIQHQDWMSGKAFACAVNNKDLPAPIERTISKPKGSVRAPQVYVLPPPEEEMTKKQVTLTCMVTDFMPEDIYVEWTNNGKTELNYKNTEPVLDSDGSYFMYSKLRVEKKNWVERNSYSCSVVHEGLHNHHTTKSFSRTPGK
modifications: here or on the partner: In the flow-cytometry assays the IgE carried AlexaFluor-488 dye at unspecified positions. The letters do not show this.
With B1, in assay [1], the IC50 of inhibition of IgE mediated degranulation fell in the range of 10 to 30 nM and the efficacy of inhibition of IgE mediated degranulation of basophils stood at 100%.

B2: anti-IgE^4 (Fc fusion)
chain: EASDLLERLREEVTKLRMELQVSSGFVCNTCPEKWINFQRKCYYFGKGTKQWVHARYACDDMEGQLVSIHSPEEQDFLTKHASHTGSWIGLRNLDLKGEFIWVDGSHVDYSNWAPGEPTSRSQGEDCVMMRGSGRWNDAFCDRKLGAWVCDRLATCTPPASEGSAESMGPDSRPDPDGRLPTPSAPLHSGGGGSGGGGSGGGGSGGGGSASISAMVRSPRGPTIKPCPPCKCPAPNLEGGPSVFIFPPKIKDVLMISLSPIVTCVVVDVSEDDPDVQISWFVNNVEVHTAQTQTHREDYNSTLRVVSALPIQHQDWMSGKAFACAVNNKDLPAPIERTISKPKGSVRAPQVYVLPPPEEEMTKKQVTLTCMVTDFMPEDIYVEWTNNGKTELNYKNTEPVLDSDGSYFMYSKLRVEKKNWVERNSYSCSVVHEGLHNHHTTKSFSRTPGK
notes: also called biologic anti-IgE^4
With B2, the “IC50 (read off the curve)” value in the assay with IgE-Fc [2] is roughly 7 nM.

B3: derCD23 (receptor)
chain: SGFVCNTCPEKWINFQRKCYYFGKGTKQWVHARYACDDMEGQLVSIHSPEEQDFLTKHASHTGSWIGLRNLDLKGEFIWVDGSHVDYSNWAPGEPTSRSQGEDCVMMRGSGRWNDAFCDRKLGAWVCDRLATCTPPASEGSAE
notes: also called derCD23 monomer; CD23 monomer
In general, Kd refers to the concentration at which binding is half-saturated. Consider B3, for which the figures for the Kd with IgE-Fc [3] and in the assay with IgE-Fc [4] were 1820 nM and 1800 nM, respectively.

B4: hCD23-G4S3-mIgG2a Fc (Fc fusion)
chain: EASDLLERLREEVTKLRMELQVSSGFVCNTCPEKWINFQRKCYYFGKGTKQWVHARYACDDMEGQLVSIHSPEEQDFLTKHASHTGSWIGLRNLDLKGEFIWVDGSHVDYSNWAPGEPTSRSQGEDCVMMRGSGRWNDAFCDRKLGAWVCDRLATCTPPASEGSAESMGPDSRPDPDGRLPTPSAPLHSGGGGSGGGGSGGGGSASISAMVRSPRGPTIKPCPPCKCPAPNLEGGPSVFIFPPKIKDVLMISLSPIVTCVVVDVSEDDPDVQISWFVNNVEVHTAQTQTHREDYNSTLRVVSALPIQHQDWMSGKAFACAVNNKDLPAPIERTISKPKGSVRAPQVYVLPPPEEEMTKKQVTLTCMVTDFMPEDIYVEWTNNGKTELNYKNTEPVLDSDGSYFMYSKLRVEKKNWVERNSYSCSVVHEGLHNHHTTKSFSRTPGK
modifications: here or on the partner: In the flow-cytometry assays the IgE carried AlexaFluor-488 dye at unspecified positions. The letters do not show this.
As to B4, in assay [1], the Extracellular supernatant (IgE remaining prior to buffer change), 1 nM IgE with 0.01 nM biologic, percentage of IgE was 7%; the Extracellular supernatant (IgE remaining prior to buffer change), 1 nM IgE with 0.05 nM biologic, percentage of IgE is 4.5%; the Extracellular supernatant (IgE remaining prior to buffer change), 1 nM IgE with 0.5 nM biologic, percentage of IgE worked out at 1%; the Extracellular supernatant (IgE remaining), 1 nM IgE with 0.01 nM biologic, percentage of IgE is 8%. Further, in assay [1], the Extracellular supernatant (IgE remaining), 1 nM IgE with 0.05 nM biologic, percentage of IgE worked out at 5%; the Extracellular supernatant (IgE remaining), 1 nM IgE with 0.5 nM biologic, percentage of IgE was 1%; the IC50 of inhibition of IgE mediated degranulation lay in the range of 10 to 30 nM; the IgE Intracellular retention, 1 nM IgE with 0.01 nM biologic, percentage of IgE turned out to be 92%. In assay [1], the IgE Intracellular retention, 1 nM IgE with 0.05 nM biologic, percentage of IgE came out at 94%; the IgE Intracellular retention, 1 nM IgE with 0.5 nM biologic, percentage of IgE turned out to be 98%; the IgE Intracellular retention, 1 nM IgE with 1 nM biologic, percentage of IgE came out at 95%; the IgE Intracellular retention, 1 nM IgE with 5 nM biologic, percentage of IgE was found to be 93%. In assay [1], this molecule registered an IgE Intracellular retention, 1 nM IgE with 50 nM biologic, percentage of IgE of 90%; an IgE Intracellular retention, 1 nM IgE with 500 nM biologic, percentage of IgE of 79%; an IgE Intracellular retention, 1 nM IgE with 1000 nM biologic, percentage of IgE of 65%; an IgE Intracellular retention, 1 nM IgE with 2000 nM biologic, percentage of IgE of 52%. In assay [1], this molecule showed an IgE Uptake, 1 nM IgE with 0.01 nM biologic, percentage of IgE of 92%; an IgE Uptake, 1 nM IgE with 0.05 nM biologic, percentage of IgE of 95%; an IgE Uptake, 1 nM IgE with 0.5 nM biologic, percentage of IgE of 99%; an IgE Uptake, 1 nM IgE with 1 nM biologic, percentage of IgE of 100%. Further, in assay [1], the IgE Uptake, 1 nM IgE with 5 nM biologic, percentage of IgE came to 100%; the IgE Uptake, 1 nM IgE with 50 nM biologic, percentage of IgE was 100%; the IgE Uptake, 1 nM IgE with 500 nM biologic, percentage of IgE was found to be 100%; the IgE Uptake, 1 nM IgE with 1000 nM biologic, percentage of IgE was determined as 100%. In assay [1], this molecule showed an IgE Uptake, 1 nM IgE with 2000 nM biologic, percentage of IgE of 100% and an efficacy of inhibition of IgE mediated degranulation of basophils of 90%.

B5: hCD23-G4S3-mIgG2a Fc (Fc fusion)
chain: EASDLLERLREEVTKLRMELQVSSGFVCNTCPEKWINFQRKCYYFGKGTKQWVHARYACDDMEGQLVSIHSPEEQDFLTKHASHTGSWIGLRNLDLKGEFIWVDGSHVDYSNWAPGEPTSRSQGEDCVMMRGSGRWNDAFCDRKLGAWVCDRLATCTPPASEGSAESMGPDSRPDPDGRLPTPSAPLHSGGGGSGGGGSGGGGSASISAMVRSPRGPTIKPCPPCKCPAPNLEGGPSVFIFPPKIKDVLMISLSPIVTCVVVDVSEDDPDVQISWFVNNVEVHTAQTQTHREDYNSTLRVVSALPIQHQDWMSGKAFACAVNNKDLPAPIERTISKPKGSVRAPQVYVLPPPEEEMTKKQVTLTCMVTDFMPEDIYVEWTNNGKTELNYKNTEPVLDSDGSYFMYSKLRVEKKNWVERNSYSCSVVHEGLHNHHTTKSFSRTPGK
notes: It has two CD23 monomers, paired through the IgG Fc; also called anti-IgE^3; IgE^3
As for B5, in the assay with IgE-Fc [2], the “IC50 (read off the curve)” value is roughly 10 nM.

B6: anti-IgE^0 (Fc fusion)
chain: EASDLLERLREEVTKLRMELQVSSGFVCNTCPEKWINFQRKCYYFGKGTKQWVHARYACDDMEGQLVSIHSPEEQDFLTKHASHTGSWIGLRNLDLKGEFIWVDGSHVDYSNWAPGEPTSRSQGEDCVMMRGSGRWNDAFCDRKLGAWVCDRLATCTPPASEGSAESMGPDSRPDPDGRLPTPSAPLHSASISAMVRSPRGPTIKPCPPCKCPAPNLEGGPSVFIFPPKIKDVLMISLSPIVTCVVVDVSEDDPDVQISWFVNNVEVHTAQTQTHREDYNSTLRVVSALPIQHQDWMSGKAFACAVNNKDLPAPIERTISKPKGSVRAPQVYVLPPPEEEMTKKQVTLTCMVTDFMPEDIYVEWTNNGKTELNYKNTEPVLDSDGSYFMYSKLRVEKKNWVERNSYSCSVVHEGLHNHHTTKSFSRTPGK
modifications: here or on the partner: In the flow-cytometry assays the IgE carried AlexaFluor-488 dye at unspecified positions. The letters do not show this.
In assay [1], B6 yielded an IC50 of inhibition of IgE mediated degranulation greater than 300 nM and a maximal efficacy of inhibition of IgE mediated degranulation of basophils of 50%.

B7: anti-IgE^0 (Fc fusion)
chain: EASDLLERLREEVTKLRMELQVSSGFVCNTCPEKWINFQRKCYYFGKGTKQWVHARYACDDMEGQLVSIHSPEEQDFLTKHASHTGSWIGLRNLDLKGEFIWVDGSHVDYSNWAPGEPTSRSQGEDCVMMRGSGRWNDAFCDRKLGAWVCDRLATCTPPASEGSAESMGPDSRPDPDGRLPTPSAPLHSASISAMVRSPRGPTIKPCPPCKCPAPNLEGGPSVFIFPPKIKDVLMISLSPIVTCVVVDVSEDDPDVQISWFVNNVEVHTAQTQTHREDYNSTLRVVSALPIQHQDWMSGKAFACAVNNKDLPAPIERTISKPKGSVRAPQVYVLPPPEEEMTKKQVTLTCMVTDFMPEDIYVEWTNNGKTELNYKNTEPVLDSDGSYFMYSKLRVEKKNWVERNSYSCSVVHEGLHNHHTTKSFSRTPGK
notes: also called biologic anti-IgE^0
Regarding B7, the “IC50 (read off the curve)” value in the assay with IgE-Fc [2] was roughly 30 nM.
